The record followed here is paper PMC7265457, “A disulfide constrains the ToxR periplasmic domain structure, altering its interactions with ToxS and bile-salts” (Scientific Reports, 2020).

This experiment deals with T1, V. cholerae ToxS periplasmic domain tagged with an N-terminal chitin binding domain (V. cholerae, UniProt P24003 26-173).
T1 construct: also called CBD-ToxSp
T1 sequence: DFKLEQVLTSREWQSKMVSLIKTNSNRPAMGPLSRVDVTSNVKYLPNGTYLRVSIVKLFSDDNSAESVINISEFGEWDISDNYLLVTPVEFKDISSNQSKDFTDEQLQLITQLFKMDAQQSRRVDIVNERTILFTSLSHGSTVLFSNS
Description: pull-down. The note with it: both partners purified.

B1: V. cholerae non-disulfide bonded ToxR periplasmic domain (domain or fragment)
chain: TNPSQTSFKPLTVVDGVAVNMPNNHPDLSNWLPSIELCVKKYNEKHTGGLKPIEVIATGGQNNQLTLNYIHSPEVSGENITLRIVANPNDAIKVCE
notes: also called Vc-ToxRp
On to B1, for which the “amount pulled down (buffer) relative to Vc-dbToxRp with CDC” value worked out at 0.22 relative level.
